For the assay, the target named is T1, human interleukin 5 receptor encoded by cDNA clone lambda-h5R.27 (human, UniProt Q01344 21-395).
T1 sequence: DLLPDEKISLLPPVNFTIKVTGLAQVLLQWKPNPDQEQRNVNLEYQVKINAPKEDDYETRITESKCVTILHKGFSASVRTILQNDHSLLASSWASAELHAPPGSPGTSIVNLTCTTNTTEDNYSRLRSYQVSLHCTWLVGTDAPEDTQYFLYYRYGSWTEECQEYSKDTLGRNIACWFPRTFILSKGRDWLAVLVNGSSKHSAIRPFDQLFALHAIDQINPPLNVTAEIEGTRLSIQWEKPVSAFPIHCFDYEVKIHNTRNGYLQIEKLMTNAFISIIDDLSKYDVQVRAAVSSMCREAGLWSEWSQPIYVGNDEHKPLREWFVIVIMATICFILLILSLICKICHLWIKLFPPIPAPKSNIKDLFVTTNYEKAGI
As to the kind of experiment: radioligand binding.

This is an account of results in publication PMC2119102 (The Journal of Experimental Medicine, 1992).

What is called Kd is a measure of binding affinity in units of concentration. Higher therefore signals lower affinity.

B1: recombinant murine interleukin 5, 35S-methionine labelled (ligand, mouse, UniProt P04401 21-133, looked up)
chain: MEIPMSTVVKETLTQLSAHRALLTSNETMRLPVPTHKNHQLCIGEIFQGLDILKNQTVRGGTVEMLFQNLSLIKKYIDRQKEKCGEERRRTRQFLDYLQEFLGVMSTEWAMEG
modifications: 35S-methionine labelled
B1 showed a Kd of 0.25 nM.
